Data reported in article PMC9177846, “Targeting parvalbumin promotes M2 macrophage polarization and energy expenditure in mice” (Nature Communications, 2022).

Tests used:
[1] = target: T1, GFP-tagged CSF1R immunoprecipitated from HEK293T cells (UniProt P09581)
T1 sequence: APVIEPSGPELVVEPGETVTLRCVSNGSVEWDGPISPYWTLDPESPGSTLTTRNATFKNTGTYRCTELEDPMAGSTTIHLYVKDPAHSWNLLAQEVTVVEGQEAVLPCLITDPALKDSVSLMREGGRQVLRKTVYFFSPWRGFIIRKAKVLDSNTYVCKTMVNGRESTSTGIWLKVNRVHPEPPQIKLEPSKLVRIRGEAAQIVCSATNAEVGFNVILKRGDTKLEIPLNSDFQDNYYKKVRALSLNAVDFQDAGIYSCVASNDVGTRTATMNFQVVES

[2] = target: T2, CSF1R protein immobilised for SPR (UniProt P09581 20-298); test: SPR; Open SPR (Nicoya); CSF1R (30 µg/ml) covalently immobilised on COOH sensor chip by EDC/NHS; parvalbumin injected from low to high concentrations, 20 µl/min for 5 min; analysed with Trace Drawer; details: both partners purified
T2 construct: CSF1R protein used at 30 µg/ml for covalent immobilisation
T2 sequence: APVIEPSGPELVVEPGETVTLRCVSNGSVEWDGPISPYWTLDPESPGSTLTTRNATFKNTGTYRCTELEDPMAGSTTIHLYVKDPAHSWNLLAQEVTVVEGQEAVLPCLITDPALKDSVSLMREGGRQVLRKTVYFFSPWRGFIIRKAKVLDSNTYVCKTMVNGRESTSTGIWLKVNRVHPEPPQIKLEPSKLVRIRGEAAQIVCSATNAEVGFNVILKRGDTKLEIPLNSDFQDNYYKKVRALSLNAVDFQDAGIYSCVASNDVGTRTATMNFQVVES

[3] = target: T3, GFP-tagged CSF1R immunoprecipitated from HEK293T cells (UniProt P09581 20-298); test: cell-based or functional assay
T3 sequence: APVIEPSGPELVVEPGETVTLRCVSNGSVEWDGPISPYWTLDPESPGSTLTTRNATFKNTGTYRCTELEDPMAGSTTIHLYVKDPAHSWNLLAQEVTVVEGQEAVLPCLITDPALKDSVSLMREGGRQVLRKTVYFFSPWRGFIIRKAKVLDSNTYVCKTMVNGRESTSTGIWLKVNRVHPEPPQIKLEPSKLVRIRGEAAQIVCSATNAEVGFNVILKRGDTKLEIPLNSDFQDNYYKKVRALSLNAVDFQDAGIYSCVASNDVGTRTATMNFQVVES

B1: Macrophage colony-stimulating factor (ligand)
chain: KEVSEHCSHMIGNGHLKVLQQLIDSQMETSCQIAFEFVDQEQLDDPVCYLKKAFFLVQDIIDETMRFKDNTPNANATERLQELSNNLNSCFTKDYEEQNKACVRTFHETPLQLLEKIKNFFNETKNLLEKDWNIFTKNCNNSFAKCSSRDVVTKPDCNCLYPKATPSSDPASASPHQPPAPSMAPLAGLAWDDSQRTEGSSLLPSELPLRIEDPGSAKQRPPRSTCQTLESTEQPNHGDRLTEDSQPHPSAGGPVPGVEDILESSLGTNWVLEEASGEASEGFLTQEAKFSPSTPVGGSIQAETDRPRALSASPFPKSTEDQKPVDITDRPLTEVNPMRPIGQTQNNTPEKTDGTSTLREDHQEPGSPHIATPNPQRVSNSATPVAQLLLPKSHSWGIVLPLGELEGKRSTRDRRSPAELEGGSASEGAARPVARFNSIPLTDTGHVEQHEGSSDPQIPESVFHLLVPGIILVLLTVGGLLFYKWKWRSHRDPQTLDSSVGRPEDSSLTQDEDRQVELPV
B1 gave an ELK1-Luc reporter: concentration-response of MCSF on CSF1R activation in cells stably expressing CSF1R (EC50) [1] of 0.36 nM.

B2: parvalbumin (recombinant protein) (natural protein, UniProt P32848 1-110, looked up)
chain: MSMTDVLSAEDIKKAIGAFAAADSFDHKKFFQMVGLKKKNPDEVKKVFHILDKDKSGFIEEDELGSILKGFSSDARDLSAKETKTLLAAGDKDGDGKIGVEEFSTLVAES
notes: parvalbumin, recombinant; The only source printed for a recombinant parvalbumin is human parvalbumin 15333-H08E (Sino Biological), named for the PBMC experiments only; also called PVALB; rPVLAB; source: recombinant protein
In the case of B2, the Kd [2] is reported as 3650 nM and the “ELK1-Luc reporter: concentration-response of parvalbumin on CSF1R activation in the presence of MCSF (IC50)” value [3] is reported as 3.26 nM.
